Measurements published in PMC2788870.

Target: His6-HPr (B. subtilis) (UniProt P08877)
Assay: pull-down

Sequence of UniProt P08877 (P08877 whole entry): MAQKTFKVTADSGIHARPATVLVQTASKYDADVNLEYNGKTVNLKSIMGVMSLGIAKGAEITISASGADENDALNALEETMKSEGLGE

stoichiometry N: 1
Substance: GST-HBD (from UniProt O31522 403-515) (domain or fragment)
